Measurements taken from patent US20230348616A1 (MIE UNIVERSITY, published 2023).
Substitutions are numbered along the chain they refer to.

B1: NYA-1143 (scFv)
scFv: GEVQLVESGGGVVQPGRSLTPSCSASGFSIRSYDIHWVRLAPGKGLEWVATISYDGSQKYFADSVKGRFTIFRDESENMVYLQMSGLRVEDTAVYHCARGSSGHYEAFDIWGQGTMVTVSSGGGGSGGGGSGGGGSQSVLTQPPSVSAAPGQKVTISCSGSSSNIGNWYVSWYQQLPGTAPKLLIYDNNKRPSGIPDRFSGSKSGTSATLGITGLQTGDEADYYCGTWDSSLSAPWVFGGGTKVTVLGAAAGAGGDYKDDDDKGAAAHHHHHH
B2: NYA-1163 (scFv)
scFv: B1 scFv with W168N
B3: NYA-2048 (scFv)
scFv: GQVQLVESGGGVVQPGRSLRLSCAASGFSIRSYDMHWVRQAPGKGLEWVATISYDGSQKYYADSVKGRFTISRDNSKNTLYLQMSSLRAEDTAVYHCARGSSGHYEAFDIWGQGTLVTVSSGGGGSGGGGSGGGGSQSVLTQPPSASGTPGQRVTISCSGSSSNIGNWYVSWYQQLPGTAPKLLIYDNNKRPSGVPDRFSGSKSGTSASLAISGLQSEDEADYYCGTWDSSLSAPWVFGGGTKLTVLGAAAGAGGDYKDDDDKGAAAHHHHHH
notes: also called NYA-2048 tag adduct
B4: NYC-0004 (scFv, not shown: small tags and cut ends)
scFv: EVQLLESGGGLVQPGGSLRLSCAASGFTFSTYQMSWVRQAPGKGLEWVSGIVSSGGSTAYADSVKGRFTISRDNSKNTLYLQMNSLRAEDTAVYYCAGELLPYYGMDVWGQGTTVTVSSGGGGSGGGGSGGGGSQSELTQPRSVSGSPGQSVTISCTGTERDVGGYNYVSWYQQHPGKAPKLIIHDVIERSSGVPDRFSGSKSGNTASLTISGLQAEDEADYYCWSFAGGYYVFGTGTDVTVL
notes: also called T1 scFv; NYC-0004 tag adduct
B5: NYA-1154 (scFv)
scFv: B1 scFv with I35M, L40Q, G103N, W168N, Q175R, T227A
B6: NYA-2023 (scFv)
scFv: B1 scFv with L40Q
B7: NYA-2143 (scFv)
scFv: B1 scFv with Q175R
B8: NYA-2035 (scFv)
scFv: B1 scFv with Y169K
B9: NYA-2044 (scFv)
scFv: GEVQLVESGGGLVQPGGSLRLSCAASGFSIRSYDIHWVRLAPGKGLEWVATISYDGSQKYYADSVKGRFTISRDESKNTLYLQMNSLRAEDTAVYHCARGSSGHYEAFDIWGQGTLVTVSSGGGGSGGGGSGGGGSQSVLTQPPSVSAAPGQKVTISCSGSSSNIGNWYVSWYQQLPGTAPKLLIYDNNKRPSGIPDRFSGSKSGTSATLGITGLQTGDEADYYCGTWDSSLSAPWVFGGGTKVTVLGAAAGAGGDYKDDDDKGAAAHHHHHH
notes: also called NYA-2044 tag adduct
B10: NYA-2047 (scFv)
scFv: B9 scFv with E2Q, L12V, G17R, I35M, L40Q, E75N, N85S
B11: NYA-2045 (scFv)
scFv: B3 scFv with Q2E, V12L, R17G, M35I, Q40L, N75E, S85N
notes: also called NYA-2045 tag adduct

These binders were tested against T1, 5A (assay: flow cytometry on peptide-pulsed T2 cells, scFv 100 nM).
T1 construct: also called HLA-A2 / point-mutant NY-ESO peptide 5A complex on T2 cells
Protocol: (§1) The resultant was washed two times in the AIM-V medium containing 20% FBS, the concentration thereof was adjusted to an adequate level with PBS containing 5% FBS, the LIVE/DEAD Fixable Dead Cell Stain Kit (Thermo Fisher Scientific) was added thereto, and the resultant was allowed to stand at 4° C. for 30 minutes. The cells were washed 2 times in PBS containing 5% FBS, the washed cells were divided into two groups, the cells in PBS containing 5% FBS were seeded on a 96-well U-bottom microplate at 10⁵ cells/well, and the plate was subjected to centrifugation, followed by removal of the supernatant. Anti-HLA/NY-ESO scFv diluted to 100 nM with PBS containing 5% FBS was added at 25 μl/well to one of the divided cells, and the resultant was allowed to stand at 4° C. for 30 minutes. The cells were washed 2 times in PBS containing 5% FBS, Penta-His Alexa Fluor488 (QIAGEN) diluted in PBS containing 5% FBS was added at 25 μl/well, and the resultant was allowed to stand at 4° C. for 30 minutes. The cells were washed 2 times in PBS containing 5% FBS, Anti-mouse-IgG Alexa Fluor488 (Thermo Fisher Scientific) diluted in PBS containing 5% FBS was added at 25 μl/well, and the resultant was allowed to stand at 4° C. for 30 minutes. The cells were washed 2 times in PBS containing 5% FBS, immobilized with Mildform 10 N (FUJIFILM Wako Pure Chemical Corporation) overnight, and resuspended in PBS containing 5% FBS. […] The cells were washed 2 times in PBS containing 5% FBS, immobilized with Mildform 10 N (FUJIFILM Wako Pure Chemical Corporation) overnight, and resuspended in PBS containing 5% FBS. The cell suspensions were subjected to detection using a flow cytometer (CantoII, Becton Dickinson). […] The standardized gMFI indicating the binding affinity of each scFv standardized with the amount of the HLA/peptide complex on the T2 cells was determined in accordance with the following equation.

Binder | standardized gMFI
B1 | 3.15
B2 | 0.62
B3 | 0.67
B4 | 0.65

Each binder was assayed against T2, 2M in the same assay as above.
T2 construct: also called HLA-A2 / point-mutant NY-ESO peptide 2M complex on T2 cells
Protocol: as §1

Binder | standardized gMFI
B1 | 11.9
B5 | 9.49
B6 | 6.74
B7 | 13.2
B8 | 8.8
B9 | 13.5
B10 | 7.34
B11 | 8.8
B3 | 5.36
B4 | 5.66

The binders below were run against T3, 4A in the same assay as above.
T3 construct: also called HLA-A2 / point-mutant NY-ESO peptide 4A complex on T2 cells
Protocol: as §1

Binder | standardized gMFI
B5 | 6.63
B2 | 0.57
B6 | 2.48
B7 | 7.19
B9 | 3.21
B10 | 0.86
B3 | 0.63

These binders were tested against T4, 6L in the same assay as above.
T4 construct: also called HLA-A2 / point-mutant NY-ESO peptide 6L complex on T2 cells
Protocol: as §1

Binder | standardized gMFI
B1 | 12.9
B5 | 9.36
B6 | 7.51
B7 | 12.9
B8 | 8.95
B9 | 13.4
B10 | 7.07
B11 | 8.8
B3 | 6.14
B4 | 3.78

Each binder was assayed against T5, 1F in the same assay as above.
T5 construct: also called HLA-A2 / point-mutant NY-ESO peptide 1F complex on T2 cells
Protocol: as §1

Binder | standardized gMFI
B2 | 0.53
B6 | 0.72
B7 | 2.72
B8 | 0.6
B9 | 0.68
B10 | 0.48
B11 | 0.53
B3 | 0.51
B4 | 3.56

These binders were tested against T6, 7F in the same assay as above.
T6 construct: also called HLA-A2 / point-mutant NY-ESO peptide 7F complex on T2 cells
Protocol: as §1

Binder | standardized gMFI
B5 | 6.08
B6 | 4.72
B8 | 5.83
B9 | 3.62
B11 | 1.99
B4 | 5.07

What follows are binders tested against T7, 8A in the same assay as above.
T7 construct: also called HLA-A2 / point-mutant NY-ESO peptide 8A complex on T2 cells
Protocol: as §1

Binder | standardized gMFI
B1 | 8.74
B5 | 11.9
B2 | 6
B6 | 5.4
B7 | 9.69
B8 | 6.41
B9 | 10
B10 | 6.61
B11 | 7.35
B3 | 4.11
B4 | 3.69

What follows are binders tested against T8, 3A in the same assay as above.
T8 construct: also called HLA-A2 / point-mutant NY-ESO peptide 3A complex on T2 cells
Protocol: as §1

Binder | standardized gMFI
B1 | 10.2
B5 | 8
B6 | 4.92
B7 | 10.3
B8 | 5.81
B9 | 10.9
B10 | 6.09
B11 | 7.46
B3 | 4.2
B4 | 4.75

Each binder was assayed against T9, 9A in the same assay as above.
T9 construct: also called HLA-A2 / point-mutant NY-ESO peptide 9A complex on T2 cells
Protocol: as §1

Binder | standardized gMFI
B1 | 15.1
B5 | 11.2
B2 | 4.01
B6 | 10.8
B7 | 14.5
B8 | 11.5
B9 | 15.6
B10 | 9.54
B11 | 9.98
B3 | 7.75
B4 | 7.99
